Test results taken from US20140206846A1 (published 2014).

Assays:
human IL6 = biological target: T1, human IL6 (human, UniProt P05231 30-212); test: Biacore SPR, Fab captured by anti-light chain antibody, IL6 as analyte
T1 construct: Bought recombinant protein
Experimental: Antibody libraries were selected against human VEGF (Peprotech catalogue number 100-20) and human IL6 (Peprotech catalogue number 200-06). Of the isolated parental antibody clones, IL6P and VEGFP were combined into the bi-specific antibody clone VH6L. […] To assess the affinities of parental and bi-specific antibodies, Biacore™ analysis was performed in order to analyze the binding behaviour of IL6P, VH6L and VEGFP. For this, an anti-light chain capture antibody was immobilized onto a CM5 chip using amine-coupling, resulting in 12000 RU. Fab fragments were captured to a level of 400-500 RU and a concentration series of IL6 and VEGF, ranging from 0 to 450 nM, was passed over the chip. As depicted in FIG. 7, clone IL6P binds to IL6, but not to VEGF, clone VEGFP binds to VEGF, but not to IL6, and the combined clone VH6L binds to both IL6 and VEGF.

HEL = biological target: T2, HEL (UniProt P00698 19-147, biotinylated); test: ELISA, biotinylated target (20 nM) on streptavidin plates, Fab in culture supernatant
T2 construct: Control target of the ELISA
T2 sequence (P00698 19-147): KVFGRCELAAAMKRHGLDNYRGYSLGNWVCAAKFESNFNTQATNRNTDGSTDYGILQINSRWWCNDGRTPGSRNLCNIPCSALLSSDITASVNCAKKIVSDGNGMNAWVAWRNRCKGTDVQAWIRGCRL
Experimental: To test the specificity of antibodies selected from Lib1 and Lib2 libraries against one target and the specificity of bi-specific antibodies designed to bind both targets, Enzyme-linked immunosorbent assays (ELISAs) were performed using standard methods. Briefly, Nunc Maxisorp plates were prepared by coating with Streptavidin dissolved in 1×PBS, binding 20 nM of biotinylated targets (GST, MBP, HEL or VEGF) in PBS-T (0.3% Tween-20 dissolved in 1×PBS) and blocking with 5% skimmed milk powder in PBS-T. Thereafter, 50 μl of E. coli TG1 culture supernatant expressing antibody clones as soluble Fab fragments in microtiter plates were added, followed by detection of bound Fab fragments using goat anti-human kappa light chain polyclonal antibody (Sigma) or mouse anti-Strep tag antibody (IBA) specific for a Strep-Il tag fused to the C-terminus of the heavy chain in the soluble Fab expression construct. Secondary antibodies were detected using HRP-labeled tertiary antibodies, ELISAs were developed using TMB substrate (KPL), and signal was quantified using a Victor plate reader from PerkinElmer set to 450 nm. […] None of the clones bound the control targets HEL or VEGF (FIG. 5). Experiments were performed in duplicate using two independent colonies for each Fab.

Binder | Kd (human IL6) [nM] | binding result (HEL)
IL6P (Fab, V domains shown) VH: EVQLVESGGGLVQPGGSLRLSCAASGFTFSSYAMSWIRQAPGKGLEWIGQISGSGGSTVYNYNVLGRFTISRDNSKNTLYLQMNSLRAEDTAVYYCARDSGYFDIWGQGTLVTVSS VL: NIQKTQSPSSLSASVGDRVTITCRALWHISSYLAWYQQKPGKAPKLLIYAASSLYSGVPSRFSGSGSGTDFTLTISSLQPEDFATYYCQQYSGLPYTFGQGTKVEIKR | 38 | –
Dummy 1 Fab (Fab, V domains shown, Tested as soluble Fab in E. coli TG1 culture supernatant; Strep-II tag fused to the C-terminus of the heavy chain) VH: EVQLVESGGGLVQPGGSLRLSCAASGFTFSSYAMSWIRQAPGKGLEWIGQISGSGGSTYYNDNVLGRFTISRDNSKNTLYLQMNSLRAEDTAVYYCARDSGYFDIWGQGTLVTVSS VL: DTQMTQSPSSLSASVGDRVTITCRASQSISSYLAWYQQKPGKAPKLLIYAASSLYSGVPSRFSGSGSGTDFTLTISSLQPEDFATYYCQQYSSLPYTFGQGTKVEIK | – | no binding
VH6L (bispecific antibody, V domains shown, Combination of IL6P and VEGFP; two paratopes in one VH-VL pair; tested as Fab fragment; also called bi-specific antibody clone VH6L; combined clone VH6L) VH: YYQLVESGGGLVQPGGSLRLSCAADGFLFSGYAMSWIRQAPGKGLEWIGQISGSGGSTVYNYNVLGRFTISRDNSKNTLYLQMNSLRAEDTAVYYCARDTGYFDHWGQGTLVTVSS VL: NIQKTQSPSSLSASVGDRVTITCRALWHISSYLAWYQQKPGKAPKLLIYAASHLHYGVPSRFSGSGSGTDFTLTISSLQPEDFATYYCQQYSGLPYTFGQGTKVEIK | 40 | –
